Measurements published in publication PMC6145873.

How the values were obtained:
[1] = biological target: TtPilFc, C-terminal tryptic fragment of Thermus thermophilus PilF (N2, CTD and Zn-binding domains) (Thermus thermophilus HB8); test: crystal structure; TtPilFc with bound ATP/Mg2+, space group C2, 2.44 Å; crystals at 20 °C in 0.2 M sodium bromide, 0.1 M Bis-Tris propane pH 6.5, 20% PEG 3350
[2] = biological target: Thermus thermophilus PilF type IVa pilus assembly ATPase, full length (Thermus thermophilus HB8); test: cryo-EM structure; single particle reconstructions of full length TtPilF as apoprotein and with 1 mM AMPPNP; ~200 μg/ml; 25 mM HEPES pH 7.5, 150 mM NaCl, 5 mM MgCl2, 5% glycerol; C2 symmetry applied

| stoichiometry N [1] | stoichiometry N [2] | Substance |
| --- | --- | --- |
| 6 | – | TtPilFc, C-terminal tryptic fragment of Thermus thermophilus PilF (N2, CTD and Zn-binding domains) (domain or fragment) |
| – | 6 | Thermus thermophilus PilF type IVa pilus assembly ATPase, full length (enzyme) |
